Test results as given in patent US20100234283A1.

Key:
[1] = biological target: VEGFR-2 on HUVEC and 293/KDR cells (human), P35968; experiment: cell-based or functional assay
[2] = biological target: T1, KDR-Fc (R&D System), P35968; experiment: SPR (BIAcore 3000), peptide on CM5 chip, KDR-Fc injected, 1:1 Langmuir fit
T1 chain: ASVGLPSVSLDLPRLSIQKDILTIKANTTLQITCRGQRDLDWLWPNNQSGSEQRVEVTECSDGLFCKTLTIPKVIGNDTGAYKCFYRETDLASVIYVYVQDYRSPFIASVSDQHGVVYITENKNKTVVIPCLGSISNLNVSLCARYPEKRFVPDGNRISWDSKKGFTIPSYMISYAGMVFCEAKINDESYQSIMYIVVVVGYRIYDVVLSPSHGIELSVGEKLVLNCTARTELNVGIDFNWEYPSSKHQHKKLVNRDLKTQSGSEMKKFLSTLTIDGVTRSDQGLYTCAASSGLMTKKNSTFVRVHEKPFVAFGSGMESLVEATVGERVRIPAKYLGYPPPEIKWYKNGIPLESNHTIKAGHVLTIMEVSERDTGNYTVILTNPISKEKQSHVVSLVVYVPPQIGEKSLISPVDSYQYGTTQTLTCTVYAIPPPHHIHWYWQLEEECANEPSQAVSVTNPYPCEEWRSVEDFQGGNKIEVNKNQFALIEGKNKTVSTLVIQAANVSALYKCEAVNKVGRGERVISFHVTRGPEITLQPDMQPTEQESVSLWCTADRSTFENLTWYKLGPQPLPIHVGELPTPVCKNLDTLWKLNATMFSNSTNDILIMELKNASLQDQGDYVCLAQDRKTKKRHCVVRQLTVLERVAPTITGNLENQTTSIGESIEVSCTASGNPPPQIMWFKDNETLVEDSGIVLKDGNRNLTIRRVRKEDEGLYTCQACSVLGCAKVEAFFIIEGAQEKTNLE

Row | Binder | inhibition of HUVEC migration (scratch wound assay, 50 ng/ml rhVEGF) [1] | Kd [2]
1 | ITMQIMRIKPHQGQHIGEMSF (modifications not checked) [VEGF 102-122] | 50% | 45 nM
2 | ITMQCGIHQGQHPKIMICEMSF (modifications not checked) [VEGF-P3(NC)] | 50% | 49 nM
3 | ITMQCGIHQGQHPKIMICEMSF (modifications not checked) [VEGF-P3(CYC)] | 50% | 11 nM
